The text below walks through data of patent US6528625.

For assay [1], the target named is FLAG-tagged human CCR5 expressed on L1.2 murine pre-B lymphoma cells (human) (UniProt P51681). Put plainly: cell-based or functional assay.
Assay [2] addresses human CCR5 (untagged; endogenous on human leukocytes, parent of the CCR5/CCR2b chimeras, on U87-CD4-CCR5 cells) (human) (UniProt P51681). Nature of the assay: cell-based or functional assay.
Assay [3] has the same target. Put plainly: inhibition of ^125I-MIP-1α binding to activated T cells (CD3 blasts) by 10 µg/ml mAb.
For assay [4] the target is unchanged. Nature of the assay: inhibition of ^125I-RANTES binding to activated T cells (CD3 blasts) by 10 µg/ml mAb.

As for murine monoclonal antibody 2D7, the mAb concentration giving complete inhibition of chemotaxis of CCR5 L1.2 cells to RANTES, MIP-1α and MIP-1β in assay [1] was found to be 20 µg/mL. In assay [2], the percent inhibition of RANTES and MIP-1α chemotactic responses of T cell lines fell in the range of 60 to 80%; the percent inhibition of chemotaxis of activated, IL-2 maintained T cells to MIP-1α was 60 to 80%. The percent inhibition of ^125I-MIP-1α binding in assay [3] came to 85%. Also, in assay [4], the percent inhibition of ^125I-RANTES binding was determined as 95%.
